Results from paper PMC3252381, “Trypanosoma cruzi trans-Sialidase in Complex with a Neutralizing Antibody: Structure/Function Studies towards the Rational Design of Inhibitors” (PLoS Pathogens, 2012).

Columns and labels:
[1] = biological target: recombinant Trypanosoma cruzi trans-sialidase (construct not stated for these experiments) (Trypanosoma cruzi) (UniProt Q26966)
[2] = biological target: T1, recombinant Trypanosoma cruzi trans-sialidase (construct not stated for these experiments) (Trypanosoma cruzi, strain  …, UniProt Q26966); assay: cell-based or functional assay
[3] = biological target: T1, recombinant Trypanosoma cruzi …; assay: ITC; raw data not shown; done in the laboratory of Dr. Alan Cooper; conditions not stated; details: both partners purified
[4] = biological target: T1, recombinant Trypanosoma cruzi …; assay: SPR; BIAcore 2000; purified mAb 13G9 amine-coupled to a CM5 chip; TS (1 nM to 10 µM) injected at 50 µl/min in HBS-EP (150 mM NaCl, 0.05% P20, 10 mM HEPES pH 7.4); KD calculated from the kinetic constants; apparent; details: both partners purified

Row | Binder | IC50 of inhibition of TS activity (remnant activity of 2 ng TS with sialyllactose and [14C]-lactose, increasing amounts of purified Fab) [1] | IC50 of inhibition of TS activity (remnant activity of 2 ng TS with sialyllactose and [14C]-lactose, increasing amounts of whole 13G9 IgG) [2] | Kd [3] | Kd [4]
1 | Fab fragment of mAb 13G9 (Fab, V domains shown) VH: VKLQQSGVELVRPGTSVKMSCKAVGYTFTYDWIGWVKQRPGHGLEWIGDIYLGGGYINYNEKFKGKVILTADTSSSTAYMQLSSLTSEDSAIYYCARGHYDGSYFDYWGQGTTLTVSS VL: DVLMTQTPTIMSASIGEEITLTCSASSSVSHMHWYQHKSGTSPKLLIYITSYLASGVPSRFSGSGSGTFYSLTISSVEAEDAADYYCHQWSTFPSTFGSGTKLEIK | 1600 pM |  |  | 
2 | TS-neutralizing mouse monoclonal antibody 13G9 (IgG2aκ) (antibody, V domains shown, they are those of the Fab heavy chain in PDB 3OPZ (chain H; also I and J); rest of the mouse IgG2a heavy chain constant region beyond the Fab (hinge, CH2, CH3); the antibody was typed as IgG2aκ; they are those of the Fab light chain in PDB 3OPZ (chain L; also M and N); also called mAb 13G9; 13G9 mAb; source: 13G9 hybridoma culture supernatant; purified (Protein A-Sepharose, MonoQ) or used as …) VH: VKLQQSGVELVRPGTSVKMSCKAVGYTFTYDWIGWVKQRPGHGLEWIGDIYLGGGYINYNEKFKGKVILTADTSSSTAYMQLSSLTSEDSAIYYCARGHYDGSYFDYWGQGTTLTVSS VL: DVLMTQTPTIMSASIGEEITLTCSASSSVSHMHWYQHKSGTSPKLLIYITSYLASGVPSRFSGSGSGTFYSLTISSVEAEDAADYYCHQWSTFPSTFGSGTKLEIK |  | 56 pM | < 1000 pM | ~720 pM
